Laboratory results: patent US6319685A (Unigene Laboratories, Inc., priority 1987, dated 2001)
One block for each molecule: values may come before it. Residues, ends and D or L forms follow the SMILES beside them.

Tests used:
alpha-amidating enzyme [1] = molecular target: T1, alpha-amidating enzyme (Rattus norvegicus, UniProt P14925); test: co-factor requirement of alpha-amidating enzyme for maximal activity; assay type: biochemical; details: in vitro, with peptide substrate, oxygen and L-ascorbic acid
T1 sequence (P14925 36-976): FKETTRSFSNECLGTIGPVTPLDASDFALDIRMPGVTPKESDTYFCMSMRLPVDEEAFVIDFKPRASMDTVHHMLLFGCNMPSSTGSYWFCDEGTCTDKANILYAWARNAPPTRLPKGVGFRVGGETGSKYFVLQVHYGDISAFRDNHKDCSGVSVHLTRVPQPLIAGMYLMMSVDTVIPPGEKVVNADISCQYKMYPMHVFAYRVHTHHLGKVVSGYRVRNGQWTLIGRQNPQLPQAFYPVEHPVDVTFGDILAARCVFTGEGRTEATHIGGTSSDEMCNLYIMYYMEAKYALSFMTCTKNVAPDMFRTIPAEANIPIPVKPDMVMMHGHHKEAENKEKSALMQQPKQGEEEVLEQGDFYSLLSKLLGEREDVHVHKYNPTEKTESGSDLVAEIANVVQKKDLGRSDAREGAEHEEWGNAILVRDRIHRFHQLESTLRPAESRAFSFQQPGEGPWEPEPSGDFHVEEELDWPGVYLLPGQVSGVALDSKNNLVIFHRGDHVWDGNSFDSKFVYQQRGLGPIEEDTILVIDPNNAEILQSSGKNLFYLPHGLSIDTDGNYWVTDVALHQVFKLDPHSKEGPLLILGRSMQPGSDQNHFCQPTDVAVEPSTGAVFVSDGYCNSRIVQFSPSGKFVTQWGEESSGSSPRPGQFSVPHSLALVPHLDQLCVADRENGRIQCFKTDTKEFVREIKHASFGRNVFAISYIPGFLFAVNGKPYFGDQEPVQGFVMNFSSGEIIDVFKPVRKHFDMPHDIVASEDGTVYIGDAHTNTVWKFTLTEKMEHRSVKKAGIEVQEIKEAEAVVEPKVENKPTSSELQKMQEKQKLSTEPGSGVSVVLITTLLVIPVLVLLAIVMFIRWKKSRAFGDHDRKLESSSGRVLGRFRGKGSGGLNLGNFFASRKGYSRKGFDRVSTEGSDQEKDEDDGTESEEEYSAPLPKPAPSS

alpha-amidating enzyme [2] = molecular target: T1, alpha-amidating enzyme; test: comparison of assay systems / kinetic analysis of amidation of dansyl-Tyr-Val-Gly, D-Tyr-Val-Gly and 125I-D-Tyr-Val-Gly; assay type: biochemical
Method: (§1) I. Monodansyl L-Tyr-Val-Gly
(§2) The concentration of enzyme used in all experiments was left constant except where noted.
(§3) The reaction mixture for the conversion of the monodansyl substrate contained:
(§4) 5 μl of 100 ug/mL bovine pancreatic catalase
(§5) 5 μl containing 2 nmoles of substrate
(§6) The samples were prepared in duplicate and incubated at 37° C. for 10, 20 and 30 minutes time periods. The enzymatic reaction was halted by the addition of 10 ul 500 mM EDTA. Substrate and product were separated by RP HPLC using an Hewlett Packard-1090 liquid chromatography system, and quantitation was achieved using a HP-3392 integrator.
(§7) D-Tyr-Val-Gly and D-Tyr-Val-NH2 were iodinated using iodobeads from Pierce Chemical Company. The radiolabeied substrate and product were used to calibrate a sulfyl-propyl cation-exchange column. ^125 I D-Tyr-Val-Gly was added to 650 uM D-Tyr-Val-Gly and used as the substrate. The reaction mixture for the conversion of monodansyl substrate contained:
(§8) Samples were incubated for 10, 20, 30 minutes at 37° C. The reaction was stopped by addition of 500 mM EDTA. […] The conversion of radiolabeled substrate to product was linear with respect to time.
The reaction conditions used for the amidation of D-Tyr-Val-Gly are identical to those described for the dansyl and iodinated substrates. Substrate concentration in the reaction mixture was 650 uM. Separation of substrate and product is achieved by gradient elution on RP-HPLC using a HP-1090 liquid chromatography system. The column effluents were monitored at 280 nm. The level of sensitivity for this assay is much lower than that for either dansyl or iodinated substrates.
Furthermore, a somewhat more rigorous kinetic analysis has also been employed to compare the dansyl-Tyr-Val-Gly (Applicants') assay to the D-Tyr-Val-Gly (prior art) assay.

[3] = substrate: CC(C)[C@H](NC(=O)[C@H](N)Cc1ccc(O)cc1)C(=O)NCC(=O)O; test: as above; assay type: biochemical, rat; details: 37.0 °C
Method: as §1, §2, §3, §4, §5, §6, §7, §8
The reaction conditions used for the amidation of D-Tyr-Val-Gly are identical to those described for the dansyl and iodinated substrates. Substrate concentration in the reaction mixture was 650 uM. […] The column effluents were monitored at 280 nm. […]

[4] = pH optimum of alpha-amidating enzyme; assay type: biochemical; details: CA-77 cell tissue culture media enzyme
Method: 2. The optimum pH for the activity of the enzyme was determined to be pH 5.0-5.5 using N dansyl Tyr-Val-Gly as the substrate (FIG. XVI). However, due to the enhanced stability of the enzyme at neutral pH, it may be beneficial to carry out the amidation reaction at such pH.

[5] = specific alpha-amidating activity, conversion of Dansyl-D-Tyr-Val-Gly to Dansyl-D-Tyr-Val-CONH2; assay type: biochemical
Method: These and other objects will become apparent from a thorough reading of the present disclosure. […] All specific activity units set forth herein are based upon the conversion of Dansyl-D-Try-Val-Gly-COOH to Dansyl-D-Tyr-Val-CONH2. One mU is defined as the amount of activity needed to convert one nanomole (nmole) of Dansyl-D-Tyr-Val-Gly-COOH to one nmole of Dansyl-D-Tyr-Val-CONH2 per minute at 37° C. and pH 7.0 in the presence of ascorbate ions at a concentration of 3 mM (based on total reaction mixture including enzyme, substrate, co-factors, etc.), molecular oxygen in a molar excess over substrate and a concentration of cupric ions effective to maximize activity (usually about 2 μM depending on the state of purity of the enzyme).
Each purification step can be monitored for both protein content and the level of alpha-amidation activity. This information is used to calculate the specific activity of the enzyme which serves as an indicator of the relative purity of the enzyme.
Sephacryl S-300 (Pharmacia) was equilibrated in 50 mM Tris HCl pH 7.0 and poured into a K 50/100 column (Pharmacia) according to the manufacturer's instructions. The bed volume of the column was approximately 1.3 liters. The Sample was loaded onto the column in a volume representing approximately 3 percent of the bed volume of the column. Proteins were eluted from the column in 50 mM Tris HCl pH 7.0 at a flow rate of approximately 2 ml per minute.
as §3
The samples were prepared in duplicate and incubated at 37° C. for 10, 20 and 30 minutes time periods. The enzymatic reaction was halted by the addition of 10 ul 500 mM EDTA.

Molecule: catalase
effect of addition on enzymatic activity (alpha-amidating enzyme [1]): substantially increased

Molecule: CC(C)[C@H](NC(=O)[C@H](N)Cc1ccc(O)cc1)C(=O)NCC(=O)O [D-Tyr-Val-Gly] (HELM PEPTIDE1{[dY].V.G}$$$$V2.0)
maximal velocity relative to dansyl-Tyr-Val-Gly (alpha-amidating enzyme [2]; comparison of Vmax): approximately 1.48 times

fractional conversion relative to dansyl-Tyr-Val-Gly (alpha-amidating enzyme [2]; each time point (10, 20, 30 minutes), 37° C.): approximately 1.55 times
Molecule: ^125 I-D-Tyr-Val-Gly [125I-D-Tyr-Val-Gly]

effect of addition on enzymatic activity (alpha-amidating enzyme [1]): substantially increased
Molecule: O=S(=O)([O-])[O-].[Cu+2] [copper sulfate]

B1: alpha-amidating enzyme (Rattus norvegicus) (protein)
chain: FKETTRSFSNECLGTIGPVTPLDASDFALDIRMPGVTPKESDTYFCMSMRLPVDEEAFVIDFKPRASMDTVHHMLLFGCNMPSSTGSYWFCDEGTCTDKANILYAWARNAPPTRLPKGVGFRVGGETGSKYFVLQVHYGDISAFRDNHKDCSGVSVHLTRVPQPLIAGMYLMMSVDTVIPPGEKVVNADISCQYKMYPMHVFAYRVHTHHLGKVVSGYRVRNGQWTLIGRQNPQLPQAFYPVEHPVDVTFGDILAARCVFTGEGRTEATHIGGTSSDEMCNLYIMYYMEAKYALSFMTCTKNVAPDMFRTIPAEANIPIPVKPDMVMMHGHHKEAENKEKSALMQQPKQGEEEVLEQGDFYSLLSKLLGEREDVHVHKYNPTEKTESGSDLVAEIANVVQKKDLGRSDAREGAEHEEWGNAILVRDRIHRFHQLESTLRPAESRAFSFQQPGEGPWEPEPSGDFHVEEELDWPGVYLLPGQVSGVALDSKNNLVIFHRGDHVWDGNSFDSKFVYQQRGLGPIEEDTILVIDPNNAEILQSSGKNLFYLPHGLSIDTDGNYWVTDVALHQVFKLDPHSKEGPLLILGRSMQPGSDQNHFCQPTDVAVEPSTGAVFVSDGYCNSRIVQFSPSGKFVTQWGEESSGSSPRPGQFSVPHSLALVPHLDQLCVADRENGRIQCFKTDTKEFVREIKHASFGRNVFAISYIPGFLFAVNGKPYFGDQEPVQGFVMNFSSGEIIDVFKPVRKHFDMPHDIVASEDGTVYIGDAHTNTVWKFTLTEKMEHRSVKKAGIEVQEIKEAEAVVEPKVENKPTSSELQKMQEKQKLSTEPGSGVSVVLITTLLVIPVLVLLAIVMFIRWKKSRAFGDHDRKLESSSGRVLGRFRGKGSGGLNLGNFFASRKGYSRKGFDRVSTEGSDQEKDEDDGTESEEEYSAPLPKPAPSS
Km [3]: 37 µM
Vmax [3]: 31 pmol product/min/μl

pH optimum [4]: 5.0-5.5
B2: Peak IV enzyme (CA-77): higher molecular weight form from CA-77 medium, corresponds to peak III derived from MTC tumors (protein, UniProt P14925 36-976, looked up)
Peptidylglycine …: FKETTRSFSNECLGTIGPVTPLDASDFALDIRMPGVTPKESDTYFCMSMRLPVDEEAFVIDFKPRASMDTVHHMLLFGCNMPSSTGSYWFCDEGTCTDKANILYAWARNAPPTRLPKGVGFRVGGETGSKYFVLQVHYGDISAFRDNHKDCSGVSVHLTRVPQPLIAGMYLMMSVDTVIPPGEKVVNADISCQYKMYPMHVFAYRVHTHHLGKVVSGYRVRNGQWTLIGRQNPQLPQAFYPVEHPVDVTFGDILAARCVFTGEGRTEATHIGGTSSDEMCNLYIMYYMEAKYALSFMTCTKNVAPDMFRTIPAEANIPIPVKPDMVMMHGHHKEAENKEKSALMQQPKQGEEEVLEQGDFYSLLSKLLGEREDVHVHKYNPTEKTESGSDLVAEIANVVQKKDLGRSDAREGAEHEEWGNAILVRDRIHRFHQLESTLRPAESRAFSFQQPGEGPWEPEPSGDFHVEEELDWPGVYLLPGQVSGVALDSKNNLVIFHRGDHVWDGNSFDSKFVYQQRGLGPIEEDTILVIDPNNAEILQSSGKNLFYLPHGLSIDTDGNYWVTDVALHQVFKLDPHSKEGPLLILGRSMQPGSDQNHFCQPTDVAVEPSTGAVFVSDGYCNSRIVQFSPSGKFVTQWGEESSGSSPRPGQFSVPHSLALVPHLDQLCVADRENGRIQCFKTDTKEFVREIKHASFGRNVFAISYIPGFLFAVNGKPYFGDQEPVQGFVMNFSSGEIIDVFKPVRKHFDMPHDIVASEDGTVYIGDAHTNTVWKFTLTEKMEHRSVKKAGIEVQEIKEAEAVVEPKVENKPTSSELQKMQEKQKLSTEPGSGVSVVLITTLLVIPVLVLLAIVMFIRWKKSRAFGDHDRKLESSSGRVLGRFRGKGSGGLNLGNFFASRKGYSRKGFDRVSTEGSDQEKDEDDGTESEEEYSAPLPKPAPSS
modifications: higher molecular weight form
specific activity ([5]; CA-77 media, purified enzyme, pH 7.0): approximately 1500 mU/mg protein

B3: peak eluting at 190 mM NaCl: enzyme activity peak from Mono Q HR 5/5 at pH 8.0 eluting at 190 mM NaCl (protein, UniProt P14925 36-976, looked up)
Peptidylglycine …: FKETTRSFSNECLGTIGPVTPLDASDFALDIRMPGVTPKESDTYFCMSMRLPVDEEAFVIDFKPRASMDTVHHMLLFGCNMPSSTGSYWFCDEGTCTDKANILYAWARNAPPTRLPKGVGFRVGGETGSKYFVLQVHYGDISAFRDNHKDCSGVSVHLTRVPQPLIAGMYLMMSVDTVIPPGEKVVNADISCQYKMYPMHVFAYRVHTHHLGKVVSGYRVRNGQWTLIGRQNPQLPQAFYPVEHPVDVTFGDILAARCVFTGEGRTEATHIGGTSSDEMCNLYIMYYMEAKYALSFMTCTKNVAPDMFRTIPAEANIPIPVKPDMVMMHGHHKEAENKEKSALMQQPKQGEEEVLEQGDFYSLLSKLLGEREDVHVHKYNPTEKTESGSDLVAEIANVVQKKDLGRSDAREGAEHEEWGNAILVRDRIHRFHQLESTLRPAESRAFSFQQPGEGPWEPEPSGDFHVEEELDWPGVYLLPGQVSGVALDSKNNLVIFHRGDHVWDGNSFDSKFVYQQRGLGPIEEDTILVIDPNNAEILQSSGKNLFYLPHGLSIDTDGNYWVTDVALHQVFKLDPHSKEGPLLILGRSMQPGSDQNHFCQPTDVAVEPSTGAVFVSDGYCNSRIVQFSPSGKFVTQWGEESSGSSPRPGQFSVPHSLALVPHLDQLCVADRENGRIQCFKTDTKEFVREIKHASFGRNVFAISYIPGFLFAVNGKPYFGDQEPVQGFVMNFSSGEIIDVFKPVRKHFDMPHDIVASEDGTVYIGDAHTNTVWKFTLTEKMEHRSVKKAGIEVQEIKEAEAVVEPKVENKPTSSELQKMQEKQKLSTEPGSGVSVVLITTLLVIPVLVLLAIVMFIRWKKSRAFGDHDRKLESSSGRVLGRFRGKGSGGLNLGNFFASRKGYSRKGFDRVSTEGSDQEKDEDDGTESEEEYSAPLPKPAPSS
modifications: Mono Q fraction
specific alpha-amidating activity ([5]; after Mono Q chromatography at pH 8.0, rat MTC tumor): at least 80 mU/mg protein
